Test results as given in the nanobody polyreactivity screen of Harvey et al. (2022).

Test: yeast display, Sf9 membrane polyspecificity reagent, FACS + sequencing; frameworks hold sequencing errors
In short: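 Sorting gates, low and high (top ~1%), were placed on anti-HA fluorescence to track expression and on streptavidin fluorescence to track reagent binding. A clone's polyreactivity label is taken from the gate it came out of. The reagent was 10% biotinylated, detergent-solubilized Sf9 membrane, applied for 1 hour at 4 °C to galactose-induced yeast display cells.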

Sequence | polyreactivity (PSR sort gate)
QVQLVESGGGLVQAGGSLRLSCAASGSIFYDYVMGWYRQAPGKERELVAAITRGGRTYYADSVKGRFTISRDNAKNTVYLQMNSLKPEDTAVYYCNAGRHQGYDWGQGTQVTVSS | high polyreactivity
QVQLVESGGGLVQAGASLRLSCAASGRTFYQNGMGWYRQAPGKERELVAVISSGGNTDYADSVKGRFTMSRDNAKNTVYLQMNSLKPEDTAVYYCNADVRPAYTYDYWGQGTQVTVSS | low polyreactivity
QVQLVESGGGLVQAGGSLRLSCAASGSTFDQYGMGWYRQAPGKERELVAAITSVGGTNYADSVKGRFTISRDNAKNTVYLKMNSLKPEDTAVYYCAAGSVSQYDSWGQGTQVTVSS | low polyreactivity
QVQLVESGGGLVQAGGSLRLSCAASGSTFWKYVMGWYRQAPGKVRELVAAITSRGGSTYADSVKGRFTISRDNAKNTVYLQMNSLKPEDTAVYYCAATKFWYYGYDYWGQGTQVTVSS | low polyreactivity
QVQLVESGGGLVQAGGSLRLSCAASGSIYRYYAMGWYRQAPGKETELVAAIRVSTGSTSYADSVKGRFTISRDNAKNTVYLQMNSLKPEDTAFYYCNAGVGYFVGTYYGFLPYDYWGQGTQVTVSS | high polyreactivity
QVQLVESGGGLVQAGGSLRLSCAASGRIFVINTMGWYRQAPGKERELVAAISRGGSTNYADSVKGRFTISRDNAKNTVYLQMNSLKPEDTAVYYCAATGYILFAGGGYDYWGQGTQVTVSS | low polyreactivity
QVQLVESGGGLVQAGGSLRLSCAASGRTFREYAMGWYRHAPGKEREFVAAISESVGSTYYADSVKGRFTISRDNAKNTVYLQMNSLKPEDTAVYYCAKQSRYPSLDADYDYWGQGTQVTVSS | low polyreactivity
QVQLVESGGGLVQAGGSLRLSCAASGRIYAMGWYRQAPGKERELVAAISYSGGSTYYADSVKGRFTISRDNAKNTVYLQMNSLKPEDTAVYYCAAVIYRGYYYWGQGTQVTVSS | high polyreactivity
QVQLVESGGGLVQAGGSLRLSCAASGLSSLRMLWDGRDRRLGKKGSWLPLITSGGDSTNYADSVKGRFTISRDNAKNTVYLQMNSLKPEDTAVYYCAADLDYPYGYWGQGTQVTVSS | low polyreactivity
QVQLVESGGGLVQAGGSLRLSCAASGSTFYRYAMGWYRQAPGKERELVAAINTGGSTNYADSVKGRFTISRDNAKNTVYLQMNSLKPEDTAVYYCAARFQYYRKYDYWGQGTQGTVSS | low polyreactivity
QVQLVESVGGIVQAGGSLRLSCDASGRTFGRSAMGSYRQAPGKERELVAGISRAGDSTHYAESVKGRCTISRDNAKNTVYLQMNSLKPEDTAVYYCNKETPTIGARKYEYWGQGTQVTVSS | low polyreactivity
QVQLVESGGGLDHAGGSLRLSCAASGFIFTPNAMGMYRQAPAKEREWVAAITSGGVTYYADSVKGRFTISRDNAKNTVYIQMNSLKPEGTAVYYCKKNHTGTVRDSIYGYWGQGNQVTVSS | high polyreactivity
QVQLVESGGGLVQAGGSLRLSCAASGITFDYYPMGWYRQEPGKERELVAVITWSVGSTKYADSVKGRFTISRDNAKNTVYLLMNRLKPEETAVYNCNPRPPRWVRSMDYWGHGTQVTVSS | high polyreactivity
QVQIVESGGGLVQAGGSLRLSCAASGRTFTYYAMGWYRQAPGKERELVARIRSGGSTYYADSVKGRFTISRDNEKNTVYLQMNSLKPEDTAVYYCNADRRSAGLYNYWGQGTQVTVSS | low polyreactivity
QVQLVVSGGGLVQAGGSLRLSCAASGSIFYFNAMGWYRQAPGKERELVASITSGGSTNYADSVKGRFTISRDNAKTTVYLQLISLKPEDTAVYYFNAYTWGVGSSLDDVGYWGQGTQVTGSS | low polyreactivity
QFQLGESGGGLVQAGGSLRLSCAASGSTFSGYTKGWYRQARGKEREFVAAISSRGGSTYYADSVKGRFTISRDNAKNTVYLQMYRLNPEDTAVYYCAAKVCARVDGRQFRMEYWGQGTQVTVSS | high polyreactivity
QVQLVESGGGLVQAGGSLRLSCAASGRIFLRYTMGWYRQAPGKERELVAAISARTTGTYYADSVKGRFTISRDNAKNTVYLQMNSLKPEDTAVYYCAAKSKLSRDLFSWGQGTQVTVSS | low polyreactivity
